Here are results for ten molecules from paper PMC8427231, “Mechanism of dimerization and structural features of human LI-cadherin” (The Journal of Biological Chemistry, 2021).

Broadly, the Kd is a measure of binding affinity in units of concentration. A low value points to a tighter complex. Broadly, the stoichiometry N is the number of molecules, sites or subunits per partner or assembly.

One data set has as its target T1, human LI-cadherin EC1-5 (human).
T1 chain: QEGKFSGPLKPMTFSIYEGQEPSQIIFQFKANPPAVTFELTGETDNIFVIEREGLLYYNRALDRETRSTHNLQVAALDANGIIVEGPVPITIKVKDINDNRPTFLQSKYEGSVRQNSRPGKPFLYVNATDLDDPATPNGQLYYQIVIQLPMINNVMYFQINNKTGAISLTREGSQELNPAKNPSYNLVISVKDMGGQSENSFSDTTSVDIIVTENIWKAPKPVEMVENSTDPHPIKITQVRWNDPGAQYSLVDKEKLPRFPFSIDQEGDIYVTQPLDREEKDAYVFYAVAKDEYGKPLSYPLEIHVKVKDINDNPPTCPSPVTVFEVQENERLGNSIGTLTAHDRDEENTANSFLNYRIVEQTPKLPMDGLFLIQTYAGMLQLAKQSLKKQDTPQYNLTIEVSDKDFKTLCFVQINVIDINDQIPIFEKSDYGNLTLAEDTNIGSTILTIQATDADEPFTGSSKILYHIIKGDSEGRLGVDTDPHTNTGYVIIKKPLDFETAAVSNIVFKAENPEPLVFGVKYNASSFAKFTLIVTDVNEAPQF
Briefly: AUC; sedimentation velocity (SV-AUC), 20 °C, buffer A (10 mM Hepes-NaOH pH 7.5, 150 mM NaCl, 3 mM CaCl2); EC1-7 at 1-20 μM, EC1-2, EC3-4, EC1-4, EC1-5 at 1-60 μM, EC1-4F224A at 1-120 μM; KD of the monomer-dimer equilibrium (dimer to monomers) from the weight-average sedimentation coefficient, SEDPHAT. The conditions noted are these: both partners purified.

Data set [1] concerns the molecule itself. The description is as above.
Data set [2] deals with the molecule itself. Briefly: SEC-MALS; Superose 12 10/300 GL, 45 μl injected at 100 μM or 50 μM, eluted at about 4 μM; protein conjugate analysis. In general terms: In gel filtration, larger molecules generally elute earlier.

Substitutions are numbered along the chain they refer to.

B1: human LI-cadherin EC1-5 (domain or fragment)
chain: T1 chain
modifications: N-glycosylated (Expi293F), Ca2+-bound; limits by convention: mature N-terminus as in PDB 7CYM (EC1-4), end of the UniProt Cadherin 5 domain; His tag omitted; homodimerizes / N-glycosylated …
Turning to B1, in the data set with human LI-cadherin EC1-5, binding was characterised by a dissociation constant (Kd) of 22.8 µM and the “stoichiometry N” value worked out at 2.

B2: human LI-cadherin EC1-2 (domain or fragment)
chain: GPLKPMTFSIYEGQEPSQIIFQFKANPPAVTFELTGETDNIFVIEREGLLYYNRALDRETRSTHNLQVAALDANGIIVEGPVPITIKVKDINDNRPTFLQSKYEGSVRQNSRPGKPFLYVNATDLDDPATPNGQLYYQIVIQLPMINNVMYFQINNKTGAISLTREGSQELNPAKNPSYNLVISVKDMGGQSENSFSDTTSVDIIVTE
notes: human LI-cadherin, extracellular cadherin repeats 1-2; source: Expi293F cells, culture supernatant, purified (Ni-NTA IMAC, SEC)
Turning to B2, in data set [1], the affinity, expressed as Kd, was 75 µM and the “stoichiometry N” value is 2.

B3: human LI-cadherin EC1-4 N176A (domain or fragment)
chain: QEGKFSGPLKPMTFSIYEGQEPSQIIFQFKANPPAVTFELTGETDNIFVIEREGLLYYNRALDRETRSTHNLQVAALDANGIIVEGPVPITIKVKDINDNRPTFLQSKYEGSVRQNSRPGKPFLYVNATDLDDPATPNGQLYYQIVIQLPMINAVMYFQINNKTGAISLTREGSQELNPAKNPSYNLVISVKDMGGQSENSFSDTTSVDIIVTENIWKAPKPVEMVENSTDPHPIKITQVRWNDPGAQYSLVDKEKLPRFPFSIDQEGDIYVTQPLDREEKDAYVFYAVAKDEYGKPLSYPLEIHVKVKDINDNPPTCPSPVTVFEVQENERLGNSIGTLTAHDRDEENTANSFLNYRIVEQTPKLPMDGLFLIQTYAGMLQLAKQSLKKQDTPQYNLTIEVSDKDFKTLCFVQINVID
notes: human LI-cadherin, extracellular cadherin repeats 1-4, point mutant; Parent: m4; source: Expi293F cells, culture supernatant, purified (Ni-NTA IMAC, SEC)
In the case of B3, the binding result in data set [2] was “binds”.

B4: human LI-cadherin EC1-4 (domain or fragment)
chain: B3 chain with A154N
modifications: N-glycans (four modelled on chain A, two on chain B of the crystal structure; sites not given)
notes: human LI-cadherin, extracellular cadherin repeats 1-4; Theoretical mass without glycan 49.8 kDa; also called EC1-4WT; WT; source: Expi293F cells, culture supernatant, purified (Ni-NTA IMAC, SEC)
For the molecule B4, in data set [1], binding was characterised by a dissociation constant (Kd) of 39.8 µM and the “stoichiometry N” value was 2.

B5: human LI-cadherin EC1-4 V210A (domain or fragment)
chain: B3 chain with A154N, V188A
notes: as for B3
As for B5, the binding result in data set [2] is listed as “binds”.

B6: human LI-cadherin EC1-4 L355A (domain or fragment)
chain: B3 chain with A154N, L333A
notes: as for B3
On to B6, for which the binding result in data set [2] is “binds”.

B7: human LI-cadherin EC1-4 Y399A (domain or fragment)
chain: B3 chain with A154N, Y377A
notes: as for B3
Turning to B7, the binding result in data set [2] is reported as “binds”.

B8: human LI-cadherin EC1-4 Q404A (domain or fragment)
chain: B3 chain with A154N, Q382A
notes: as for B3
With B8, in data set [2], the binding result is on record as “binds”.

B9: human LI-cadherin EC1-4 N371A (domain or fragment)
chain: B3 chain with A154N, N349A
notes: as for B3
Regarding B9, the binding result in data set [2] is on record as “binds”.

B10: human LI-cadherin EC1-4 N222A (domain or fragment)
chain: B3 chain with A154N, N200A
notes: as for B3
Take B10: the binding result in data set [2] was “binds”.
